Reference: patent US12359199B2, “Regulation of gene expression via aptamer-mediated control of self-cleaving ribozymes” (MEIRAGTX UK II LIMITED, priority 2016, dated 2025)
Values joined by “and” are separate entries in the source; they are usually repeats but may differ in a detail not shown here. Equal values may be shown once.

Assays:
Type in all cases: cell-based
[1] = tested on: firefly luciferase expression in HEK 293 cells; experiment: Firefly luciferase assay of transfected HEK 293 cells treated with or without guanine or guanosine; conditions: riboswitch in 3′ UTR
Experimental: Firefly luciferase assay of cultured cells: 24 hours after media change, plates were removed from the incubator, equilibrated to RT for several minutes on a lab bench, and then aspirated. Glo-lysis buffer (Promega, 100 μL, RT) was added, and the plates allowed to remain at RT for at least 5 minutes. The well contents were mixed by 50 μL trituration, and 20 μL of each sample was mixed with 20 μL of bright-glo reagent (Promega) that had been diluted to 10% in glo-lysis buffer. 96 wells were spaced on an opaque white 384-well plate. Following a 5-minute incubation at RT, luminescence was measured using a Tecan machine with 500 mSec read time. The luciferase activity was expressed as mean relative light unit (RLU)±S.D. […]
Transfection and aptamer ligand treatment: HEK 293 cells were transfected as described in Example 1. Four hours after transfection, the media was aspirated, and new media with or without 500 μM guanine or 1 mM guanosine (Sigma) was added. Luciferase assay was performed 20 to 24 hours after guanine or guanosine treatment as described in Example 2. The reduction fold was expressed as the quotient of luciferase activity obtained in the absence of aptamer ligand divided by the value obtained in the presence of the aptamer ligand.
Oligos containing either a start codon or coding sequence for the first 10 amino acids of GFP and waspGua16 followed by a linker2A sequence were synthesized (IDT) and cloned into the pLuc vector using the Gibson cloning strategy and cloning kit (NEB). Transfection and luciferase assay of cultured cells were performed as described in Example 3. […]

[2] = tested on: mouse erythropoietin (Epo) gene expression in HEK 293 cells; experiment: ELISA assay for measuring mouse Epo in culture media of transfected HEK 293 cells; conditions: riboswitch in 3′ UTR of mouse Epo gene; ligand-treated vs solvent-treated control cells; supernatant 18 hours after treatment
Experimental: FIG. 3e. HEK 293 cells were transfected with the indicated constructs, and treated with 500 μM guanosine. DMSO was used as solvent control. Supernatant was collected 18 hours after guanosine treatment, the Epo was measured using ELISA kit. The results were expressed as mean±SD (n=2). Shown is the representative of two independent experiments.
ELISA assay for measuring mouse Epo in culture media: Supernatant was collected 18 hours after drug treatment, and an ELISA was performed using ELISA kit (R&D) according to manufacturer's instructions. The data was analyzed using 4-parameter curve fitting.

[3] = tested on: firefly luciferase expression in HEK 293 cells; experiment: Firefly luciferase assay of transfected HEK 293 cells treated with or without theophylline
Experimental: Firefly luciferase assay of cultured cells: 24 hours after media change, plates were removed from the incubator, equilibrated to RT for several minutes on a lab bench, and then aspirated. Glo-lysis buffer (Promega, 100 μL, RT) was added, and the plates allowed to remain at RT for at least 5 minutes. The well contents were mixed by 50 μL trituration, and 20 μL of each sample was mixed with 20 μL of bright-glo reagent (Promega) that had been diluted to 10% in glo-lysis buffer. 96 wells were spaced on an opaque white 384-well plate. Following a 5-minute incubation at RT, luminescence was measured using a Tecan machine with 500 mSec read time. The luciferase activity was expressed as mean relative light unit (RLU)±S.D.
Oligos containing the twister ribozyme sequence linked with theophylline aptamer were synthesized (IDT), and cloned into pLuc vector using Gibson cloning strategy and kit (NEB). Construct sequences were verified by DNA sequencing (Genewiz).
Transfection and firefly luciferase assay: HEK 293 cells were transfected as described in Example 1. Four hours after transfection, the media was aspirated, and new media with or without 2 mM theophylline (Sigma) was added. […] The reduction fold was expressed as the quotient of luciferase activity obtained in the absence of aptamer ligand divided by the value obtained in the presence of the aptamer ligand.

Molecule | fold reduction in luciferase activity upon guanine treatment ([1]; 500 μM guanine vs no guanine) | reduction in luciferase activity upon guanine treatment ([1]; 500 μM guanine vs no guanine) | reduction in luciferase activity upon guanine treatment (in words) ([1]; 500 μM guanine) | fold reduction in luciferase expression upon guanosine treatment ([1]; guanosine at 1 mM as aptamer ligand) | reduction of Epo production [2] | reduction in gene expression (luciferase activity) upon theophylline treatment ([3]; 2 mM theophylline vs no theophylline) | luciferase activity in the absence of aptamer ligand (in words) ([3]; no theophylline)
Luci-waspGua16: Luciferase construct with 3 bp of stem connecting the guanine aptamer directly to twister loop 2; OFF riboswitch in 3′ UTR (nucleic acid, misc_feature 1..247 waspGua16 in pLuc, Luciferase construct with 3 bp of stem connecting the guanine aptamer directly to twister loop 2; OFF riboswitch in 3′ UTR) DNA: TCAGAGAGATCCTCATAAAGGCCAAGAAGGGCGGAAAGATCGCCGTGTAAACGCCTTGTAATGCGGCATATAATCGCGTGGATATGGCACGCAAGTTTCTACCGGGCACCGTAAATGTCCGACTATTCGGTCTCAAGCCCGATAAACGCAGAGAGCAAGGCGGCCGCCATACCACATTTGTAGAGGTTTTACTTGCTTTAAAAAACCTCCCACACCTCCCCCTGAACCTGAAACATAAAATGAATGC | 15 fold and 12 fold | 92% | reduced luciferase activity | 25 fold | approximately 30% |  | 
twister_theo_3: Theophylline aptamer linked by 3 bp stem to loop 2 of twister ribozyme, in pLuc (nucleic acid, misc_feature 1..219 twister_theo_3 in pLuc, Theophylline aptamer linked by 3 bp stem to loop 2 of twister ribozyme, in pLuc) DNA: TCAGAGAGATCCTCATAAAGGCCAAGAAGGGCGGAAAGATCGCCGTGTAAACGCCTTGTAATGCGGCGCGATACCAGCCGAAAGGCCCTTGGCAGCGTTCGGTCTCAAGCCCGATAAACGCAGAGAGCAAGGCGGCCGCCATACCACATTTGTAGAGGTTTTACTTGCTTTAAAAAACCTCCCACACCTCCCCCTGAACCTGAAACATAAAATGAATGC |  |  |  |  |  | 62% | the most robust luciferase activity
